We go through 31 sequences from the supplement of paper PMC9170038.

The subject of this data set is MS2 coat protein. The data set is described as follows: apparent KD of MS2 coat protein; designed switch direction (-1 OFF switch, 1 ON switch): -1; higher = weaker reporter binding. In a few lines:
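The reported apparent KD is a per-design median over clusters, from curve fits of normalised cluster fluorescence. Protein titrations used SNAP-549-labelled MS2 coat protein, doubled from 0.7 or 1.5 nM to 3 µM, in Tris-HCl pH 7.5 buffer with KCl, MgCl2, BSA, DTT, tRNA and Tween-20, with no input, 200 uM small-molecule ligand, or an oligonucleotide input. The RNA switches were transcribed on Illumina chips by stalled E. coli RNA polymerase.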

[1] abbreviates: input ligand: microRNA oligo, concentration not stated.
[2] abbreviates: Eterna round: R95, input ligand: microRNA oligo, concentration not stated.
[3] abbreviates: Eterna round: R95, input ligand: FMN 200 uM.
The mark [4] stands for this setting: Eterna round: R95, input ligand: none.

As to “AGCUUUUUGCUCGUCUUAUACAUGAGGAUCACCCAUGUAUUGGACCACAUCGAUAGAUGUGGGCCAAGAAGCAUGGG [Omdei Mir OFFv1 C2] (Eterna round: R97, puzzle: Sensor, turn-off variant 1)”, the “apparent KD of MS2 coat protein” value by setting is: (input ligand: FMN 200 uM) 133 nM; (input ligand: none) 176 nM.
Turning to “GCAGCACAUGUAGGAUAUCUGCACGUUUAGUGCAGAGAAGGACAUGAGGAUCACCCAUGUAAUUAAGAUCAAUUAUUAAGCUGC [ENG1/3-C2] (Eterna round: R96, puzzle: Exclusion NG 1)”, the “apparent KD of MS2 coat protein” value runs as follows: (input ligand: FMN 200 uM) 178 nM; under setting [1], 32.1 nM; (input ligand: none) 44.2 nM.
In the case of “GCUCGUCUUGUAAUGUUUAACAUGAGGAUCACCCAUGUCACCAACGUCGGAGAUGCAGGUUCAUGUUUUAAUGUAUA [Eternabot (L2) Solution 23] (Eterna round: R97, puzzle: Sensor, turn-off variant 1)”, the “apparent KD of MS2 coat protein” value runs as follows: (input ligand: FMN 200 uM) 83.5 nM; (input ligand: none) 82.6 nM.
Consider “CUCGUGCAGCAAAGCUGUACGAGUACAUGAGGAUCACCCAUGUAGGAUAUGGUACGCAAAGCGUGCUAGAAGGAUAUGUGAAAG [Mat - Exclusion NG 3 - Mod of JL - D89] (Eterna round: R96, puzzle: Exclusion NG 3)”, for which the “apparent KD of MS2 coat protein” value (input ligand: FMN 200 uM) came to 44.2 nM, the “apparent KD of MS2 coat protein” value under setting [1] turned out to be 31.4 nM and the “apparent KD of MS2 coat protein” value (input ligand: none) turned out to be 49.9 nM.
On to “CCCUCACAUGAGGAUCACCCAUGUCAGGAUAUUCGAGGCGCAAAUACGCCAAAUGCAGGAAGAAGGGACGUGCC [Ususzalaxe] (puzzle: Exclusion 1)”, for which the “apparent KD of MS2 coat protein” value under setting [2] stood at 13.5 nM.
For the sequence “UAACUUCUUGUAAGGAUAUUGGCGCGAAAGCGCACCGAGAAGGUACAUGAGGAUCACCCAUGUGAAAUAAGAAU [Mod of Zala 13 - Jieux - Brourd's Mod of Exclusion 4] (Eterna round: R97, puzzle: Brourd's mod of Exclusion 4)”, the “apparent KD of MS2 coat protein” value turned out to be 47.5 nM (input ligand: FMN 200 uM) and 27.2 nM (input ligand: none).
As for “AGUUGUGUCAAGGAUAUGCAGUCUAACGACGGAGCAGAAGGUGACACUUGAGGAUCACCCAAGUGAACCAAAAU [Bisoreis] (Eterna round: R97, puzzle: Exclusion 6)”, the “apparent KD of MS2 coat protein” value by setting is: (input ligand: FMN 200 uM) 393 nM; (input ligand: none) 57.5 nM.
For the sequence “CUUAGUAUCUAGGAUAUCUAGUACAUAGUAUCUAGAGAAGGAGAUACAUGAGGAUCACCCAUGUUCUGUGUUCU [Exclusion 6 - 1:b] (Eterna round: R96, puzzle: Exclusion 6)”, the “apparent KD of MS2 coat protein” value under setting [1] came to 18.2 nM and the “apparent KD of MS2 coat protein” value (input ligand: none) was 24.8 nM.
For the sequence “CGAUGCUCGUGGCCACAUGAGGAUCACCCAUGUCGAGUUAGCGAGGAUAUCGGUAGCACAUAUCACGAGAAGGCGCGAACCUGA [Ex NG3 #29] (Eterna round: R96, puzzle: Exclusion NG 3)”, the “apparent KD of MS2 coat protein” value turned out to be 32.3 nM (input ligand: FMN 200 uM), 10.9 nM under setting [1] and 12 nM (input ligand: none).
Take “AGCUAGUCAGGAUAUUCUGUUAAUUACAUGAGGAUCACCCAUGUGAAUGGACAAGGGUGUGAAGAAGGGACUAGCG [Omei Ex5 A15] (Eterna round: R97, puzzle: Exclusion 5)”: the “apparent KD of MS2 coat protein” value reads like this: (input ligand: FMN 200 uM) 124 nM; (input ligand: none) 248 nM.
As for “AGCUGUGGCCGAGGAUAUCUAAUAGUCCCAACCGAAAUAUAAUCGGACAUGAGGAUCACCCAUGUAGAGAAGGCGGUCUCAGCA [Eli eng2 - 069] (Eterna round: R96, puzzle: Exclusion NG 2)”, the “apparent KD of MS2 coat protein” value (input ligand: FMN 200 uM) came out at 286 nM, the “apparent KD of MS2 coat protein” value under setting [1] is 102 nM and the “apparent KD of MS2 coat protein” value (input ligand: none) came out at 113 nM.
In the case of “ACGUUUUUUGAGGAUAUGCGACGUUCCUUCGUCGUAGAAGGCGAUACAUGAGGAUCACCCAUGUUUAUGGGCAU [LRO-Ex6-17] (puzzle: Exclusion 6)”, the “apparent KD of MS2 coat protein” value under setting [2] was found to be 86.4 nM.
As to “UAGACUGAAGGAUAUACGUGGUAUCCGGCUAAUCAAGGUUCACAUGAGGAUCACCCAUGUAGAAGGUCAGCUCG [Eternabot (L2) Solution 18] (Eterna round: R97, puzzle: Exclusion 2)”, the “apparent KD of MS2 coat protein” value runs as follows: (input ligand: FMN 200 uM) 359 nM; (input ligand: none) 58.4 nM.
As to “GUCAGCUCGUGAGGAUAUGCACAUGAGGAUCACCCAUGUAAGAUCAAGCUGCUUCGGCAGCAAGUGCAGAAGGCACGAGCUGAC [ENG2/9-A1] (Eterna round: R96, puzzle: Exclusion NG 2)”, the “apparent KD of MS2 coat protein” value was 137 nM (input ligand: FMN 200 uM), 138 nM under setting [1] and 303 nM (input ligand: none).
Regarding “CUUGUUUAUGUAGGAUAUGCCUGGCGUGCCUUUGCAGAAGGACAUGAGGAUCACCCAUGUAACAUGAGGCUCACCCUUGUCGCC [salish99_ExNG1_r04_116] (Eterna round: R96, puzzle: Exclusion NG 1)”, the “apparent KD of MS2 coat protein” value was determined as 146 nM (input ligand: FMN 200 uM), 90.1 nM under setting [1] and 114 nM (input ligand: none).
For the sequence “GUAUCGUGAGGAUAUCUAGACUGACUUAGUACAUGUCAGCUGGAGAAGGCACAUGAGGAUCACCCAUGUGAUUA (puzzle: Exclusion 4)”, under setting [2], the “apparent KD of MS2 coat protein” value turned out to be 22.2 nM.
For the sequence “CCUCAGUAAGGAUAUCAGCUUAUAGAGUUGGUAAUGAGAGCUGAGAAGGUACAUGAGGAUCACCCAUGUUAGUU [JL Zatite mod 3] (puzzle: Exclusion 4)”, under setting [2], the “apparent KD of MS2 coat protein” value came to 23.5 nM.
For the sequence “CCUCUACAUGAGGAUCACCCAUGUGAGGAUAUCAAAGCCGAAGCAAAUCUCCGGCCCAUGAGAAGGUGCAUGGA [EX1 A.9] (Eterna round: R97, puzzle: Exclusion 1)”, the “apparent KD of MS2 coat protein” value (input ligand: FMN 200 uM) was determined as 87.4 nM and the “apparent KD of MS2 coat protein” value (input ligand: none) was 19.5 nM.
Regarding “CAUACAGUAGUUAGGAUAUUGCAACGUAUACGGAUCGAGAAGGGACAUGAGGAUCACCCAUGUAGAUUGUAAAG [EX-4 Malc #9] (puzzle: Brourd's mod of Exclusion 4)”, the “apparent KD of MS2 coat protein” value under setting [2] came to 34 nM.
In the case of “CACAAGCUUUUUUGAUGCAUUUUAGUGGGUGUGGGUUGGACAUGAGGAUCACCCAUGUUUAUGAAGCUCGAUCUUUU [JR_SV3TOV2_Sub081] (puzzle: Sensor v3, turn-off variant 2)”, the “apparent KD of MS2 coat protein” value under setting [3] is 92.7 nM, the “apparent KD of MS2 coat protein” value under setting [2] was 170 nM and the “apparent KD of MS2 coat protein” value under setting [4] turned out to be 124 nM.
Consider “AGGUCACAUGAGGAUCACCCAUGUGAGGAUAUAGACUCAAGAGCUUCGGCUCUCAAGUCUAGAAGGCGCUAUGA [EX1 #50] (Eterna round: R97, puzzle: Exclusion 1)”, for which the “apparent KD of MS2 coat protein” value by setting is: (input ligand: FMN 200 uM) 26.5 nM; (input ligand: none) 28.5 nM.
Taken in the same sequence, the figures for “UAUGGUUAAGUCAGGAUAUGCACGCAGAUUACAAUGCAGAAGGGACAUGAGGAUCACCCAUGUACACUCGUGUU [Ex4 #80] (Eterna round: R97, puzzle: Brourd's mod of Exclusion 4)” were 40.7 nM and 31.8 nM.
On to “AAAAAGCGAGGAUAUACAUGAGGAUCACCCAUGUGAGGGCACCGCGGGCGCGGGACCGGUAGAAGGCGCAAAAA [Exc;s3-II] (puzzle: Exclusion 3)”, for which the “apparent KD of MS2 coat protein” value is, setting by setting: under setting [3], 33.6 nM; under setting [2], 24.1 nM; under setting [4], 38.5 nM.
For “UUAUACAAGCAAAGAUCCCACAUGAGGAUCACCCAUGUGCUCGUCUUAUAAGGAUCUGUGACGAAAGUCACGGAUCC [Mat - Sensor, turn-off var - Eli Mod - D101] (Eterna round: R97, puzzle: Sensor, turn-off variant 1)”, the “apparent KD of MS2 coat protein” value turned out to be 43.3 nM (input ligand: FMN 200 uM) and 35.7 nM (input ligand: none).
As for “UGUUGGCGAGGAUAUACAUGAGGAUCACCCAUGUGAGAGAAAAAAGUGAGGAAGAAAAGUAGAAGGCGCUGACC [salish99_ex3_r3_042] (puzzle: Exclusion 3)”, the “apparent KD of MS2 coat protein” value came to 165 nM under setting [3], 41 nM under setting [2] and 55.1 nM under setting [4].
As for “CACAGACAUGAGGAUCACCCAUGUUAGGAUAUGGAUAGCCUGCCAAGAAUAGGCGCCUCCAGAAGGAACUGGGA [Eternabot (Original) Solution 36] (Eterna round: R97, puzzle: Exclusion 1)”, the “apparent KD of MS2 coat protein” value stood at 141 nM (input ligand: FMN 200 uM) and 61.1 nM (input ligand: none).
In the same order, the values of “GAAGGACGAGGAUAUGUAUGGGACAGCCGAGGAAAAUCUCAACAUGAGGAUCACCCAUGUAGAAGGCGUGCCCG [Eternabot (Original) Solution 44] (Eterna round: R97, puzzle: Exclusion 2)” are 16.4 nM and 14.1 nM.
As for “CCCAGACUAGGAUAUACAAGCCGUGGCGAGGUGGGCCUGGGACAUGAGGAUCACCCAUGUAGAAGGAGUAGGUC [Eternabot (Original) Solution 31] (Eterna round: R97, puzzle: Exclusion 2)”, the “apparent KD of MS2 coat protein” value is 127 nM (input ligand: FMN 200 uM) and 136 nM (input ligand: none).
Regarding “GCACGGAUGGUAGGAUAUCUGUGCGAUUAGCUCAGAGAAGGACCACAUGAGGAUCACCCAUGUACCUCAAUUAACCUUCCGUGC [Eli exng1 - 021] (Eterna round: R96, puzzle: Exclusion NG 1)”, the “apparent KD of MS2 coat protein” value came to 16.9 nM (input ligand: FMN 200 uM), 21 nM under setting [1] and 17.6 nM (input ligand: none).
In the case of “CGAUGAGGAGUGAGGAUAUCGUGUUCGAAAGAACGUGAGAAGGCACAUGAGGAUCACCCAUGUGAUUCUUGUCG [Omei Ex4B A18] (Eterna round: R97, puzzle: Brourd's mod of Exclusion 4)”, the “apparent KD of MS2 coat protein” value by setting is: (input ligand: FMN 200 uM) 77.6 nM; (input ligand: none) 22.2 nM.
For the sequence “CAAGCUUUGCGAGGAUAUGAUGGCCUAUAUGCCUCAGAAGGCGCAGAUACUUGAGGAUCACCCAAGUGAUGCAAAUACGAAAAU [Mutated MS2 EX1.17] (Eterna round: R96, puzzle: Exclusion NG 1)”, the “apparent KD of MS2 coat protein” value was 71.3 nM (input ligand: FMN 200 uM), 17.4 nM under setting [1] and 20 nM (input ligand: none).
